In US8399414B2, “Analgesics” (NRL Pharma, Inc., priority 2002, dated 2013):

Columns and labels:
[1] = system: beagles; assay: single dose acute toxicity study (GLP), oral; format: in vivo; details: maximum dose of 5 g/kg
Source text: (§1) In toxicity studies in beagles and rats carried out by the inventors in accordance with GLP, lactofferin extracted from milk (manufactured by Tatua Milk Industry Co., Ltd., New Zealand, purity: 87%) was non-toxic after oral administration at physical limit doses. […] Accordingly, lactoferrin is probably non-toxic after oral administration and has almost ideal characteristics as a therapy for cancer. It is likely that lactoferrin defends opportunistic infections frequently occurring in immunocompromised hosts such as patients with cancer, prevents carcinogenesis, inhibits the growth of cancer, prevents metastasis, and destructs a metastatic lesion. Further, it is probably highly safe when administered to patients declining in immunopotency, such as aged patients.

[2] = system: rats; assay: single dose acute toxicity study (GLP), oral; format: in vivo; details: maximum dose of 5 g/kg
Source text: as §1

[3] = system: beagles; assay: subacute toxicity study, dosing period of 3 months, oral; format: in vivo; details: maximum dose of 2 g/kg
Source text: as §1

[4] = system: rats; assay: as above; format: in vivo; details: maximum dose of 2 g/kg
Source text: as §1

[5] = system: rodent animals; assay: hot plate test; format: in vivo; details: administration before test
Source text: (§2) The inventors carried out, using rodent animals, animal tests related to pain: (1) hot plate test, (2) formalin test and (3) acetic acid rising test to examine the influences of lactoferrin administration on the animals' sensation of pain.

[6] = system: rodent animals; assay: acetic acid rising test; format: in vivo; details: administration before test
Source text: as §2

[7] = system: male Wistar rats; assay: formalin test, intraperitoneal administration (Example 1); format: in vivo, rat
Procedure: (§3) Formalin test is a typical pain sensation stimulating test. It is a method for determining an analgesic effect of drugs in which 50 μl of 2% formalin is injected into a foot pad of each experimental rat and the foot-lifting and foot-licking behavior of the rats is observed.
Ten male Wistar rats (6 weeks of age) were randomly divided into two groups, and one hour before injecting formalin, the rats in the control group were given saline solution (1 ml/kg) and those in the lactoferrin group were given bovine lactoferrin dissolved in saline solution (100 ml/kg, Tatua Milk Industry Co., Ltd., purity: 87%) by intraperitoneal injection. After one hour, formalin solution was injected into the foot pad of each rat, and the foot-lifting and foot-licking behavior of each rat due to the stimulation of the pain sensation was measured for one hour (FIGS. 1 and 2).

[8] = system: male Wistar rats; assay: formalin test, oral administration in feed for 4 weeks (Example 2); format: in vivo, rat; details: 1% bovine lactoferrin in feed for 4 weeks
Procedure: as §3
Fourteen male Wistar rats (6 weeks of age) were randomly divided into two groups, and the rats in one group were fed standard feed powder for rodent animals (Clea Japan, Inc., CE-2) while those in the other group fed CE-2 with 1% bovine lactoferrin added thereto for 4 weeks. Four weeks later, formalin solution was injected into the foot pad of each rat, and the foot-lifting and foot-licking behavior of each rat due to the pain sensation stimulation was measured for one hour (FIGS. 3 and 4).

[9] = system: male Wistar rats; assay: formalin test, comparison with diclofenac (Example 3); format: in vivo, rat; details: i.p. 30 minutes before formalin
Procedure: Male Wistar rats 6 weeks of age were used. The rats in one group were given bovine lactoferrin and those in another group were given a control drug, diclofenac, by intraperitoneal administration 30 minutes before injecting formalin into their foot pads. Their responses to pain are shown in FIG. 5: the phase 1 pain (left) and the phase 2 pain (right).
Lactoferrin and diclofenac were administered intraperitoneally 30 minutes before formalin injection both in the control group (n=4) and the diclofenac group (n=5). The pain inhibiting effect of diclofenac disappeared about 50 minutes after formalin injection, whereas the pain inhibiting effect of lactoferrin lasted long and even 60 minutes after formalin injection.

[10] = system: male Wistar rats; assay: ethanol and restriction stress gastric ulcer (Example 4); format: in vivo, rat; details: 1% bovine lactoferrin in feed for 8 weeks; relative to control group
Procedure: Sixteen male Wistar rats (6 weeks of age) were randomly divided into two groups, and the rats in one group (n=8) were fed standard feed powder for rodent animals (CLEA JAPAN, INC., CE-2) while those in the other group (n=8) fed CE-2 with 1% bovine lactoferrin added thereto for 8 weeks. Eight weeks later, the rats were deprived of food for one night, administered orally and forcibly 5 ml/kg weight of 50% ethanol, and subsequently inflicted with restriction stress for 2 hours. Two 2 hours later, the stomach of each rat was excised and “number of hemorrhagic spots”, “area of hemorrhage”, “number of ulcers”, “number of large ulcers” and “areas of ulcers” on the gastric mucosa were measured.

[11] = system: adjuvant arthritis rat model; format: in vivo; details: LF 100 mg/kg oral sid or bid, Dex 1 mg/kg i.p. sid
Procedure: The preventive/therapeutic effects against arthritis of orally administered lactoferrin (LF) and the mechanism of the action were examined using an adjuvant arthritis rat model as an animal model with rheumatoid arthritis.
Evaluation of the above described effects was performed by measuring the change in volume of foot due to swelling, Flexion test (pain in joints caused in flexion and extension test), and the production of cytokine by the stimulation of lipopolysaccharide.
Adjuvant was injected subcutaneously into the sole of the right hind leg of each rat, and the volume of the feet was measured once a day to obtain the swelling rate of the feet of both hind legs. The test substance was suspended in 0.5% CMC and administered once or twice a day for 18 consecutive days starting from the first dose 3 hours before adjuvant treatment (day 0). On 4th and 10th days after treating with adjuvant, the swollen tarsal joint of each rat was extended 10 times and the number of times each rat screamed due to the stimulation of pain sensation caused by flexing and extending its tarsal joint was measured.

[12] = system: adjuvant arthritis rat model; assay: adjuvant arthritis rat model, treatment in chronic phase (Example 6); format: in vivo
Procedure: Subsequently after Example 5, lactoferrin (100 mg/kg) was orally administered for 7 consecutive days starting from day 19 after the adjuvant treatment, when the adjuvant treated rats were in the chronic phase of inflammation.

[13] = system: adjuvant arthritis models; assay: adjuvant arthritis, Flexion test after a single oral dose (Example 7); format: in vivo, rat
Procedure: On day 25 after the adjuvant treatment, the rats were divided into 6 groups and administered once BSA (bovine serum albumin) or LF (lactoferrin), and after 3 hours, the pain index was measured for each group by Flexion test in the manner as in Example 5. Thirty minutes before Flexion test, saline solution, morphine or naloxone was administered subcutaneously.

[14] = system: IL-10 production; assay: LPS-stimulated cytokine production in rats with adjuvant arthritis, ELISA (Example 8); format: in vivo, rat; details: LPS 1 mg/kg i.p., blood 3 hours later
Procedure: (§4) It is known that in adjuvant arthritis models, the production of cytokines due to the LPS stimulation increases considerably, compared with normal animals, because the reactivity of their immune system increases due to chronic inflammation.
(§5) One mg/kg of LPS was administered intraperitoneally to rats with adjuvant arthritis to stimulate the production of cytokines. Three hours after the LPS administration, the blood was collected from each rat and the quantities of cytokines were measure by ELISA. The groups to be administered a single dose of lactoferrin (groups B and C) were given orally 0.5% CMC once daily until the experiment day to allow the experiment conditions to match those of the group to be administered lactoferrin for 19 consecutive days. The group to be administered lactoferrin for 19 consecutive days (group E) was administered orally lactoferrin once daily from the very day when treated with adjuvant. The design of the experiment is shown in Table 2 and the results in FIG. 14.

[15] = system: TNF-α production; assay: as above; format: in vivo, rat; details: LPS 1 mg/kg i.p., blood 3 hours later
Procedure: as §4, §5

[16] = system: male Wistar rats; assay: formalin test, intrathecal administration, comparison with morphine (Example 12); format: in vivo; details: 30 minutes before formalin, bLF 0.1 to 100 μg/rat, rhLF 100 μg/rat, morphine 10 μg/rat, FIGS. 15
Procedure: Groups consisting of male Wistar rats 6 weeks of age (n=6 to 8) were intrathecally administered 0.1 to 100 μg/rat of bovine lactoferrin (bLF), 100 μg/rat of recombinant human lactoferrin (rhLF) or 10 μg/rat of morphine (Mor) 30 minutes before formalin was injected into their foot pads. The results are shown in FIGS. 15: the number of the foot-lifting times in the phase 1 pain (left graph) and the number of the foot-lifting times in the phase 2 pain (right graph).

[17] = system: male Wistar rats; assay: formalin test, enhancement of analgesic effect of morphine (Example 13); format: in vivo; details: 10 ng/rat bovine lactoferrin with 1 to 10,000 ng/rat morphine; several 10- to 100-fold or more; FIG. 16
Procedure: The lactoferrin's effect of enhancing the analgesic effect of morphine was examined by administering 1 to 10,000 ng/rat of morphine concurrently with 10 ng/rat of bovine lactoferrin (▪) or alone (●) in the same manner as in Example 12. The results are shown in FIG. 16: the number of the foot-lifting times in the phase 1 pain (left graph) and the number of foot-lifting time in the phase 2 pain (right graph).

[18] = system: pepsin; format: in vitro ADME
Source text: (§6) Preferably the composition of this invention, as a composition for an oral formulation, is made into an enteric-coated dosage form. The inventors of this invention hypothesize that there exists a structure, which can be referred to as a lactoferrin sensor, on the mucosa of the intestinal tract, as described in detail in International Patent Application, PCT/JP01/10212 (WO02/41912).

[19] = system: protease; assay: resistance of lactoferrin to protease; format: in vitro ADME
Source text: as §6

[20] = lactoferrin orally for 19 consecutive days
[21] = single oral dose of lactoferrin

B1: lactoferrin (protein, UniProt P24627 20-708, looked up)
Lactotransferrin: APRKNVRWCTISQPEWFKCRRWQWRMKKLGAPSITCVRRAFALECIRAIAEKKADAVTLDGGMVFEAGRDPYKLRPVAAEIYGTKESPQTHYYAVAVVKKGSNFQLDQLQGRKSCHTGLGRSAGWIIPMGILRPYLSWTESLEPLQGAVAKFFSASCVPCIDRQAYPNLCQLCKGEGENQCACSSREPYFGYSGAFKCLQDGAGDVAFVKETTVFENLPEKADRDQYELLCLNNSRAPVDAFKECHLAQVPSHAVVARSVDGKEDLIWKLLSKAQEKFGKNKSRSFQLFGSPPGQRDLLFKDSALGFLRIPSKVDSALYLGSRYLTTLKNLRETAEEVKARYTRVVWCAVGPEEQKKCQQWSQQSGQNVTCATASTTDDCIVLVLKGEADALNLDGGYIYTAGKCGLVPVLAENRKSSKHSSLDCVLRPTEGYLAVAVVKKANEGLTWNSLKDKKSCHTAVDRTAGWNIPMGLIVNQTGSCAFDEFFSQSCAPGADPKSRLCALCAGDDQGLDKCVPNSKEKYYGYTGAFRCLAEDVGDVAFVKNDTVWENTNGESTADWAKNLNREDFRLLCLDGTRKPVTEAQSCHLAVAPNHAVVSRSDRAAHVKQVLLHQQALFGKNGKNCPDKFCLFKSETKNLLFNDNTECLAKLGGRPTYEEYLGTEYVTAIANLKKCSTSPLLEACAFLTR
notes: bovine lactoferrin extracted from milk (Tatua Milk Industry Co., Ltd., purity 87%)
abnormal findings, single dose acute toxicity [1]: no abnormal findings were observed | abnormal findings, single dose acute toxicity [2]: no abnormal findings were observed | abnormal findings, subacute toxicity [3]: no abnormal findings were observed | abnormal findings, subacute toxicity [4]: no abnormal findings were observed | sensation of pain against the stimulation [5]: weakened sensation of pain | sensation of pain against the stimulation [6]: weakened sensation of pain | foot-lifting behavior ([7]; i.p. 100 ml/kg one hour before formalin, measured for one hour, vs control P<0.0001, FIG. 1): significantly decreased | number of times rats lifted their feet within 50 minutes after formalin injection (phase 2 pain) ([7]; i.p. one hour before formalin, vs control, FIG. 2): more significantly decreased | foot-licking behavior ([7]; i.p., higher doses, data not shown): significantly decreased | foot-licking behavior [8]: significantly decreased | phase 2 pain sensation stimulation induced by formalin ([8]; FIG. 4): significantly inhibiting | stimulation of the pain sensation (foot-lifting) ([8]; vs control P<0.0001, FIG. 3): weakened the sensitivity to pain | inhibition of phase 1 pain ([9]; FIG. 5): inhibited dose-dependently | inhibition of phase 2 pain ([9]; FIG. 5): inhibited dose-dependently | duration of pain inhibiting effect after formalin injection ([9]; FIGS. 7 and 8): ≥ 60 min | area of the hemorrhage per rat, decreased to [10]: 79% | area of the ulcers, decreased to [10]: about 30% | number of the large ulcers, decreased to [10]: 50% | number of the ulcers, decreased to [10]: 50% | number, per rat, of hemorrhagic spots on the gastric mucosa, decreased to [10]: 87% | swelling rate of the feet ([11]; 18 consecutive days from day 0, FIG. 10): significantly lower | Flexion test (screams, pain index) ([11]; days 4 and 10 after adjuvant, FIG. 11): neither screamed nor showed pain sensation reaction | pain index in Flexion test ([12]; 7 consecutive days from day 19, LF vs control from day 1, Dex vs lactoferrin groups, FIG. 12C): significantly lower | swelling of feet ([12]; 7 consecutive days from day 19 after adjuvant, LF 100 mg/kg oral (day 7 vs control), Dex 1 mg/kg (from day 1)): significantly lower | analgesic effect of lactoferrin with naloxone ([13]; LF 100 mg/kg oral plus naloxone 3 mg/kg s.c. 30 mins before Flexion test): completely inhibited by naloxone | sensitivity to pain in the joints (Flexion test) ([13]; single oral dose 10 to 100 mg/kg, 3 hrs before test, day 25 after adjuvant, FIG. 13): inhibited the sensitivity to pain in the joints dose-dependently | IL-10 production [14, 20]: increase | IL-10 production [14, 21]: increase | TNF-α production [15, 20]: significant inhibition | TNF-α production [15, 21]: significant inhibition | phase 1 pain (number of foot-lifting times) [16]: inhibits | phase 2 pain (number of foot-lifting times) [16]: inhibits | enhancement of the analgesic effect of morphine, phase 1 pain [17]: 10- to 100 fold | enhancement of the analgesic effect of morphine, phase 2 pain [17]: 10- to 100 fold | sensitivity to pepsin [18]: highly sensitive | resistance to protease [19]: significantly resistive
